Test results published in patent CN116640216A.

Biological target: CD19-CD22 CAR(CD19-CD22双靶点CAR-T细胞表面表达的CD19-CD22 scFv)
Experiment: flow cytometry on CD19-CD22 CAR-T cells, positive control tube

CAR阳性百分率: 31.6%
Substance: Alexa Fluor®647荧光标记的抗鼠F(ab')2抗体(Jackson ImmunoResearch Laboratories，货号#115-605-072) (antibody)
